This note sets out measurements from US20210063414A1, “METHODS FOR PREVENTING AND/OR TREATING BONE LOSS CONDITIONS BY MODULATING IRISIN” (Dana-Farber Cancer Institute, Inc., priority 2018, published 2021).

What all share (assay): Crosslinking/co-immunoprecipitation/mass spectrometry (TMT quantitative proteomics) to identify irisin receptors
Holding throughout (assay type): binding

The target of test [1] is T1, MLO-Y4 cell surface proteins (Mus musculus, UniProt P62880).
T1 construct: endogenous in cells; host or cells: MLO-Y4
T1 sequence (P62880 whole entry): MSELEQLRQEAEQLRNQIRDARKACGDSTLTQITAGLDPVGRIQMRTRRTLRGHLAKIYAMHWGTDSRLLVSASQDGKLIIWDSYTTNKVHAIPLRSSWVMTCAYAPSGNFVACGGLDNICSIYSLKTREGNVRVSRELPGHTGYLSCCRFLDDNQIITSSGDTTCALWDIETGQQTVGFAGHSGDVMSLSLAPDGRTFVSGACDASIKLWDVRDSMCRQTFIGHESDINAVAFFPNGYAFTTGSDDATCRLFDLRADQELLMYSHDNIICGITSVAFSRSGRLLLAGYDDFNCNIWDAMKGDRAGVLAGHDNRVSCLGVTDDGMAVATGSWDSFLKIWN
The following applies: co-precipitated protein Gnb2 (GBB2_MOUSE). Put shortly:
(§1)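 Mouse MLO-Y4 cells were switched to serum-free FreeStyle medium for 4 h, chilled, then exposed to 10 nM His-tagged irisin (or adipsin as control) for 20 min. Cells were crosslinked with 1.5 mM DTSSP (30 min, ice), and bound proteins were pulled down on Ni-NTA and eluted with 250 mM imidazole. Eluates were separated by SDS-PAGE, trypsin-digested in gel, TMT 6-plex labelled and quantified by MS3-based LC-MS/MS on an Orbitrap Fusion Lumos.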

The target in test [2] is T2, MLO-Y4 cell surface proteins (Mus musculus, UniProt Q9D051).
T2 construct: endogenous in cells; host or cells: MLO-Y4
T2 sequence (Q9D051 31-359): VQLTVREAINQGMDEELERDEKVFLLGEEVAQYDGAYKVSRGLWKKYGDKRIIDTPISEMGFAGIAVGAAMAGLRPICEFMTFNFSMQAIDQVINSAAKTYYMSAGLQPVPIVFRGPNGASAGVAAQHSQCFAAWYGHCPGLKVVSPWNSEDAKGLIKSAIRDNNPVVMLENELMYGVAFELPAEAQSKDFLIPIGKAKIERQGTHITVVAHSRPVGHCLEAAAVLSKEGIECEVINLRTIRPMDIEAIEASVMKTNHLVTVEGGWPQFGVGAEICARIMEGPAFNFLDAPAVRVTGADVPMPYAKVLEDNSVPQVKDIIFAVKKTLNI
The following applies: co-precipitated protein Pdhb (ODPB_MOUSE). An outline of the steps:
as §1

In test [3] the target is T3, MLO-Y4 cell surface proteins (Mus musculus, UniProt Q921N7).
T3 construct: endogenous in cells; host or cells: MLO-Y4
T3 sequence (Q921N7 78-253): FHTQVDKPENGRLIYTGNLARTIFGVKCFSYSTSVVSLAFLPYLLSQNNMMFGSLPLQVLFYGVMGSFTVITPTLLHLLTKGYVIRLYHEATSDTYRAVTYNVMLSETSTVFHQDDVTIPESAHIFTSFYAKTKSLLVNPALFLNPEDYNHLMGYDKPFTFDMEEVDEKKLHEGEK
To be noted: co-precipitated protein Tmem70 (TMM70_MOUSE). An outline of the steps:
as §1

Consider adipsin, for which the values for the TMT signal-to-noise ratio in test [1], in test [2] and in test [3] were 294.957, 365.712 and 88.4078, respectively.
